According to PMC6643271 (Biochemistry, 2018):

Columns and labels:
Details in all cases: 10 mM ATP, 14 mM MgCl2, 100 mM KCl, pH 8.0, 25 °C
[1] = biological target: Cj1418 (L-glutamine kinase) (Campylobacter jejuni, UniProt Q0P8J6)
[2] = test system: NC(=O)CC[C@@H](N)C(=O)O; assay: purified protein
[3] = test system: NNC(=O)CC[C@H](N)C(=O)O; assay: purified protein
[4] = test system: N[C@@H](CCC(=O)NO)C(=O)O; assay: purified protein

Chain of Cj1418 (L-glutamine kinase) (Q0P8J6 whole entry): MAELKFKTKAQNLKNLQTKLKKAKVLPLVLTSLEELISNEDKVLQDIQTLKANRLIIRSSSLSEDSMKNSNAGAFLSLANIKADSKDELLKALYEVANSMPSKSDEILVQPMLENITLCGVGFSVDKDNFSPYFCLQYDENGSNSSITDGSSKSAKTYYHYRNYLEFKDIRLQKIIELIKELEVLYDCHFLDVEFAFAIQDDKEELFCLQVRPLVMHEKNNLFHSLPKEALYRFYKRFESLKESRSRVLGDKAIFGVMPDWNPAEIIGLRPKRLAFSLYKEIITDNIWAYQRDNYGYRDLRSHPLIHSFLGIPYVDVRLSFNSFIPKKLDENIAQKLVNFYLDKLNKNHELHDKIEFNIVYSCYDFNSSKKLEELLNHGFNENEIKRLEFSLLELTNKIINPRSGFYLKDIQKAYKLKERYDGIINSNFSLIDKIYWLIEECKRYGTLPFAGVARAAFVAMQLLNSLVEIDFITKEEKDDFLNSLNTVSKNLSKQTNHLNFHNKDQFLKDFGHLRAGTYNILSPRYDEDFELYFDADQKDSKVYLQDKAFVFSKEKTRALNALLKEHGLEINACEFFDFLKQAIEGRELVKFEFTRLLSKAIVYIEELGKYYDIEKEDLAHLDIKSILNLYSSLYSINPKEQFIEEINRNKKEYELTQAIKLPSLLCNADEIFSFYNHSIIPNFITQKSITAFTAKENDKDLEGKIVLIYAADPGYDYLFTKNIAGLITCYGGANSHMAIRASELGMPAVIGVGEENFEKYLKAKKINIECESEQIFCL

Molecule	Km [1] [µM]	Km [2] [µM]	kcat [2] [s⁻¹]	kcat/Km [2] [M⁻¹ s⁻¹]	Km [3] [µM]	kcat [3] [s⁻¹]	kcat/Km [3] [M⁻¹ s⁻¹]	Km [4] [µM]	kcat [4] [s⁻¹]	kcat/Km [4] [M⁻¹ s⁻¹]
NC(=O)CC[C@H](N)C(=O)O [compound 1, L-glutamine]	640 ± 60									
Cj1418 (L-glutamine kinase) (Campylobacter jejuni subsp. jejuni NCTC 11168 = ATCC 700819)		10500 ± 1800	1.5 ± 0.1	140 ± 30	17200 ± 3800	0.41 ± 0.05	24 ± 6	1500 ± 400	2.1 ± 0.2	1400 ± 360
